From article PMC9580340

Target: soluble dimeric human ACE2, Fc-tagged, biotinylated (ACRO Biosystems AC2-H82F9) (human) (UniProt Q9BYF1)
Assay: SPR

Substance	Kd
SARS-CoV-2 WA-1 S2P spike trimer (binding studies) (domain or fragment)	1100 pM
SARS-CoV-2 B.1.1.529 S2P spike trimer (binding studies) (domain or fragment)	590 to 3800 pM
SARS-CoV-2 D614G S2P spike trimer (binding studies) (domain or fragment)	730 pM
